T1: Ac-IEFD-AMC
T1 chain: XIEFDX

T2: Ac-IEPD-AMC
T2 chain: XIEPDX

T3: Ac-IETD-AMC
T3 chain: XIETDX

T4: Ac-LEPD-AMC
T4 chain: XLEPDX

T5: Ac-IAPD-ACC
T5 chain: XIAPDX

T6: Ac-IKPD-AMC
T6 chain: XIKPDX

T7: Ac-LEFD-AMC
T7 chain: XLEFDX

T8: extracellular domain of VEGF-R2 (Flk1) fused to the Fc domain of mouse IgG
T8 chain: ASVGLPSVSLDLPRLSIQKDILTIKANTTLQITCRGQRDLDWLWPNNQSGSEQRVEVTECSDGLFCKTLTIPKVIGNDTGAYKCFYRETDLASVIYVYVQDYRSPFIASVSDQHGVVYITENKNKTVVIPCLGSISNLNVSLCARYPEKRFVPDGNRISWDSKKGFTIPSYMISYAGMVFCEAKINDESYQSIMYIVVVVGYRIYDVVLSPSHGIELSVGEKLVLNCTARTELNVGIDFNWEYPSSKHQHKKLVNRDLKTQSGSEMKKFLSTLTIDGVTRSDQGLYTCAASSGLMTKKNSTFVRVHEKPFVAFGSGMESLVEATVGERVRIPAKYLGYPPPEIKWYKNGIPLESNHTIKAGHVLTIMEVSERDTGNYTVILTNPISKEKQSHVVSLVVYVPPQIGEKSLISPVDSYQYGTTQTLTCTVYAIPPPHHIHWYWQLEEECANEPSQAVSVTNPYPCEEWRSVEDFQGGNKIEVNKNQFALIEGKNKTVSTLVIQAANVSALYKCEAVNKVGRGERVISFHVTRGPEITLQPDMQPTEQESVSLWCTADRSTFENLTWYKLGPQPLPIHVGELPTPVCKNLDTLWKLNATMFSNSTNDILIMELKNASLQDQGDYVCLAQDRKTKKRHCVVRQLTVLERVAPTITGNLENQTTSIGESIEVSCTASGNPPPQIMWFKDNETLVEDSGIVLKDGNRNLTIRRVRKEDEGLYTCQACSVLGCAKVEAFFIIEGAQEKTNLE


How the values were obtained:
[1] = biological target: T1, Ac-IEFD-AMC
[2] = biological target: T2, Ac-IEPD-AMC
[3] = biological target: T1, Ac-IEFD-AMC; experiment: Michaelis-Menten kinetics of fluorogenic tetrapeptide hydrolysis
[4] = biological target: T2, Ac-IEPD-AMC; experiment: as above
[5] = biological target: T3, Ac-IETD-AMC
[6] = biological target: T4, Ac-LEPD-AMC
[7] = biological target: T3, Ac-IETD-AMC; experiment: Michaelis-Menten kinetics of fluorogenic tetrapeptide hydrolysis
[8] = biological target: T5, Ac-IAPD-ACC
[9] = biological target: T6, Ac-IKPD-AMC
[10] = biological target: T6, Ac-IKPD-AMC; experiment: Michaelis-Menten kinetics of fluorogenic tetrapeptide hydrolysis
[11] = biological target: T7, Ac-LEFD-AMC
[12] = biological target: T8, extracellular domain of VEGF-R2 (Flk1) …
[13] = biological target: T7, Ac-LEFD-AMC; experiment: Michaelis-Menten kinetics of fluorogenic tetrapeptide hydrolysis
[14] = biological target: T4, Ac-LEPD-AMC; experiment: as above

Protein	kcat [1]	kcat/Km [1]	kcat [2]	kcat/Km [2]	Km [3]	Km [4]	Kcat/Km [1]	Kcat [2]	Kcat/Km [2]	Kcat [5]	Kcat/Km [5]	Kcat/Km [6]	Km [7]	Kcat/Km [8]	Kcat/Km [9]	Km [10]	further results
rat granzyme B I99A (protein) IIGGHEAKPHSRPYMAYLQIMDEYSGSKKCGGFLIREDFVLTAAHCSGSKINVTLGAHNIKEQEKMQQIIPVVKIIPHPAYNSKTASNDIMLLKLKSKAKRSSAVKPLNLPRRNVKVKPGDVCYVAGWGKLGPMGKYSDTLQEVELTVQEDQKCESYLKNYFDKANEICAGDPKIKRASFRGDSGGPLVCKKVAAGIVSYGQNDGSTPRAFTKVSTFLSWIKKTMKKS	0.24 s⁻¹	270 M⁻¹ s⁻¹	0.14 s⁻¹	57 M⁻¹ s⁻¹	880 µM	2500 µM											
rat granzyme B I99F (protein) IIGGHEAKPHSRPYMAYLQIMDEYSGSKKCGGFLIREDFVLTAAHCSGSKINVTLGAHNIKEQEKMQQIIPVVKIIPHPAYNSKTFSNDIMLLKLKSKAKRSSAVKPLNLPRRNVKVKPGDVCYVAGWGKLGPMGKYSDTLQEVELTVQEDQKCESYLKNYFDKANEICAGDPKIKRASFRGDSGGPLVCKKVAAGIVSYGQNDGSTPRAFTKVSTFLSWIKKTMKKS						500 µM	410 M⁻¹ s⁻¹	0.56 s⁻¹	510 M⁻¹ s⁻¹	0.3 s⁻¹	153 M⁻¹ s⁻¹	200 M⁻¹ s⁻¹	1900 µM				specificity constant (kcat/Km) [2]: 1100 M⁻¹ s⁻¹
rat granzyme B N218A/R192A (protein) IIGGHEAKPHSRPYMAYLQIMDEYSGSKKCGGFLIREDFVLTAAHCSGSKINVTLGAHNIKEQEKMQQIIPVVKIIPHPAYNSKTISNDIMLLKLKSKAKRSSAVKPLNLPRRNVKVKPGDVCYVAGWGKLGPMGKYSDTLQEVELTVQEDQKCESYLKNYFDKANEICAGDPKIKRASFAGDSGGPLVCKKVAAGIVSYGQADGSTPRAFTKVSTFLSWIKKTMKKS						1700 µM		0.16 s⁻¹	92 M⁻¹ s⁻¹					29 M⁻¹ s⁻¹	55 M⁻¹ s⁻¹	> 2000 µM	
rat granzyme B I99R (protein) IIGGHEAKPHSRPYMAYLQIMDEYSGSKKCGGFLIREDFVLTAAHCSGSKINVTLGAHNIKEQEKMQQIIPVVKIIPHPAYNSKTRSNDIMLLKLKSKAKRSSAVKPLNLPRRNVKVKPGDVCYVAGWGKLGPMGKYSDTLQEVELTVQEDQKCESYLKNYFDKANEICAGDPKIKRASFRGDSGGPLVCKKVAAGIVSYGQNDGSTPRAFTKVSTFLSWIKKTMKKS			kcat is 0.47 s^-1 and 0.55 s^-1, respectively		930 µM and The Km of the P2-Phe substrate (980 µM)	1800 µM	505 M⁻¹ s⁻¹	0.59 s⁻¹	330 M⁻¹ s⁻¹	0.3 s⁻¹	150 M⁻¹ s⁻¹	12 M⁻¹ s⁻¹	2000 µM				Kcat [1]: 0.47 s⁻¹
rat granzyme B I99A/N218A (protein) IIGGHEAKPHSRPYMAYLQIMDEYSGSKKCGGFLIREDFVLTAAHCSGSKINVTLGAHNIKEQEKMQQIIPVVKIIPHPAYNSKTASNDIMLLKLKSKAKRSSAVKPLNLPRRNVKVKPGDVCYVAGWGKLGPMGKYSDTLQEVELTVQEDQKCESYLKNYFDKANEICAGDPKIKRASFRGDSGGPLVCKKVAAGIVSYGQADGSTPRAFTKVSTFLSWIKKTMKKS	0.26 s⁻¹	290 M⁻¹ s⁻¹	0.087 s⁻¹	32 M⁻¹ s⁻¹	890 µM	2700 µM											ΔΔGT^‡ [1]: -1.33 kcal/mol; ΔΔGT^‡ [2]: 0 kcal/mol; kcat [11]: 0.047 s⁻¹; kcat/Km [11]: 37 M⁻¹ s⁻¹; ΔΔGT^‡ [11]: -0.09 kcal/mol; kcat/Km [6]: 1.3 M⁻¹ s⁻¹; ΔΔGT^‡ [6]: 1.92 kcal/mol; cleavage of purified VEGFR2-Fc (SDS-PAGE) [12]: The purified VEGFR2-Fc is efficiently cleaved by wild-type and mutant granzyme B ... None of the protease variants (wild-type or mutant) cleave the Fc domain; in vitro cleavage of soluble Flk1-Fc (gel, FIG. 10) [12]: Wild-type granzyme B and the listed muteins cleave the VEGFR-Fc receptor; Km [13]: 1300 µM; Km [14]: > 2000 µM
rat granzyme B N218A/R192E (protein) IIGGHEAKPHSRPYMAYLQIMDEYSGSKKCGGFLIREDFVLTAAHCSGSKINVTLGAHNIKEQEKMQQIIPVVKIIPHPAYNSKTISNDIMLLKLKSKAKRSSAVKPLNLPRRNVKVKPGDVCYVAGWGKLGPMGKYSDTLQEVELTVQEDQKCESYLKNYFDKANEICAGDPKIKRASFEGDSGGPLVCKKVAAGIVSYGQADGSTPRAFTKVSTFLSWIKKTMKKS						> 2000 µM			10 M⁻¹ s⁻¹					15 M⁻¹ s⁻¹	73 M⁻¹ s⁻¹	> 2000 µM	
